From patent US6818617

Experiments:
[1] = biological target: integrin α4β1 on Jurkat cells, P13612
[2] = biological target: integrin α4β1 on Jurkat cells, P13612; test: inhibition of cell adhesion: Jurkat cells to immobilized VCAM-1
[3] = biological target: integrin α4β1 on CHO cells transfected with human α4 (human) (UniProt P13612); test: inhibition of cell adhesion: α4B2 (CHO α4+/α5-) cells to immobilized VCAM-1
[4] = biological target: integrin α4β1 on CHO cells transfected with human α4 (human) (UniProt P13612); test: inhibition of cell adhesion: A2 (CHOα4+) cells to immobilized VCAM-1

## CKRAMLDGLNDYC (modifications not checked) [cyclic peptide …]
[1]
  fold more active than MLDG: 5 fold
[2]
  IC50: 1000 µM

B1: EC-3 protein, heterodimeric disintegrin from Echis carinatus suchoreki venom (protein)
chain 1: NSVHPCCDPVKCEPREGEHCISGPCCRNCYFLRAGTVCKRAVGDDVDDYCSGITPDCPRNRYKGKED
chain 2: NSVHPCCDPVKCEPREGEHCISGPCCRNCKFLNAGTICKRAMLDGLNDYCTGISTDCPRNRYKGKED
[3]
  IC50: 0.03 µM
[4]
  IC50: 0.03 µM

## ECESGPCCRNCKFLKEGTICKRARGDDMDDYCNGKTCDCPRNPHKGPAT [Echistatin]
[3]
  IC50: > 10 µM
[4]
  IC50: > 10 µM
